By Kd is commonly meant the free concentration of one partner at which half of the binding sites on the other are occupied at equilibrium, for simple one-to-one binding. Higher therefore signals a looser complex.

The values below come from PMC4893161, “The Dynamic Localization of Cytoplasmic Dynein in Neurons Is Driven by Kinesin-1” (Neuron, 2016).

Test [1] deals with KLC2^TPR, purified TPR domain of KLC2. Nature of the test: fluorescence polarisation; TAMRA-conjugated DIC1 tryptophan-motif peptides with purified KLC1 or KLC2 TPR domain; KD values determined at 150 mM NaCl. On the technique in general: In fluorescence polarisation assays a small probe gives low polarisation when free and higher when bound to something large.
Test [2] concerns the target HA-tagged KLC1 (kinesin light chain 1) (UniProt O88447). The test can be described thus: co-immunoprecipitation (IP with anti-mCherry, western blot band intensity). As to conditions: COS cells cotransfected, n = 6 experiments, parent: est. 1, read off a plot. (In general: A western blot detects proteins with antibodies after separation by electrophoresis.)
For test [3], the target named is HA-tagged KLC2 (kinesin light chain 2) (UniProt O88448). The test is described as above. To be noted: COS cells cotransfected, n = 4 experiments, parent: est. 1, read off a plot.
Sequence of HA-tagged KLC2 (kinesin light chain 2) (O88448 whole entry): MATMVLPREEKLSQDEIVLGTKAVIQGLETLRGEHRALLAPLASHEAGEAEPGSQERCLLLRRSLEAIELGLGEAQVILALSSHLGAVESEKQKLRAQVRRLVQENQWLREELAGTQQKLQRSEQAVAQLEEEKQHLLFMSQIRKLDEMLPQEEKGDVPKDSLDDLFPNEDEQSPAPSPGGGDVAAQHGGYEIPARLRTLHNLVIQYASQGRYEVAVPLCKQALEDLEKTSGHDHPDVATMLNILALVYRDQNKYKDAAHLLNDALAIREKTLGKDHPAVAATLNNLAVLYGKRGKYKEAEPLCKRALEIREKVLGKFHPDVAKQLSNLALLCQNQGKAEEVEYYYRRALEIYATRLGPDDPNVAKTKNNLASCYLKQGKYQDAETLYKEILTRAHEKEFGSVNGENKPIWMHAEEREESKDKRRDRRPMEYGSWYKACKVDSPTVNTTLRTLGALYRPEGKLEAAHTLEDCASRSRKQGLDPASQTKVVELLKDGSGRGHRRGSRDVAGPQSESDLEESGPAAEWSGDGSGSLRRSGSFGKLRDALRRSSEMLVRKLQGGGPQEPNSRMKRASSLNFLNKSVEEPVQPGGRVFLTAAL

Sequence of HA-tagged KLC1 (kinesin light chain 1) (O88447 whole entry): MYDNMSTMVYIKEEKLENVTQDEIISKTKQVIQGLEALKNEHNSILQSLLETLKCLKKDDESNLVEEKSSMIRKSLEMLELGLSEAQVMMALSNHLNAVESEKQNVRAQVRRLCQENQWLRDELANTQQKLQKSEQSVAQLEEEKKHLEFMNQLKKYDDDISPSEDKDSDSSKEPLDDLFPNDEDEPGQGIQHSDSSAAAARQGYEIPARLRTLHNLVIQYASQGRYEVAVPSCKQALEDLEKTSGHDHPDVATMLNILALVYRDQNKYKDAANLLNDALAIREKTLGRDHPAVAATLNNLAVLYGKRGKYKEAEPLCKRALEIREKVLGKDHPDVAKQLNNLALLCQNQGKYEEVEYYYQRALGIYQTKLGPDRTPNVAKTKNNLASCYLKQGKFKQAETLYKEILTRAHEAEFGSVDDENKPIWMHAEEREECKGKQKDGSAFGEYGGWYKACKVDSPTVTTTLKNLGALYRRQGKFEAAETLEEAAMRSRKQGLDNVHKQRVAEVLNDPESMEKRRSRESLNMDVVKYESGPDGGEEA

“WD1^pept, TAMRA-conjugated 11-amino-acid peptide centered on the first tryptophan motif of DIC1” displayed a Kd in test [1] of 9.18 µM. For “mCherry-tagged DIC1a (dynein intermediate chain 1, isoform a), wild-type (from UniProt Q63100) WD1&2AA”, the ratio to parent in test [2] (p = 0.039 vs WT) worked out at 0.47; in test [3] (p = 0.014 vs WT), 0.53. In the case of “mCherry-tagged DIC1a (dynein intermediate chain 1, isoform a), wild-type (from UniProt Q63100) WD1AA”, the ratio to parent turned out to be 0.93 in test [2] (p = 1 vs WT) and 0.77 in test [3] (p = 0.4 vs WT). As for “mCherry-tagged DIC1a (dynein intermediate chain 1, isoform a), wild-type (from UniProt Q63100) WD2AA”, the ratio to parent in test [2] (p = 0.08 vs WT) came to 0.53; in test [3] (p = 0.064 vs WT) it was 0.63.
